Reference: article PMC3617137 (2013)

Target: T1, microtubules (alpha/beta-tubulin) (Sus scrofa, UniProt P02550)
T1 chain 1: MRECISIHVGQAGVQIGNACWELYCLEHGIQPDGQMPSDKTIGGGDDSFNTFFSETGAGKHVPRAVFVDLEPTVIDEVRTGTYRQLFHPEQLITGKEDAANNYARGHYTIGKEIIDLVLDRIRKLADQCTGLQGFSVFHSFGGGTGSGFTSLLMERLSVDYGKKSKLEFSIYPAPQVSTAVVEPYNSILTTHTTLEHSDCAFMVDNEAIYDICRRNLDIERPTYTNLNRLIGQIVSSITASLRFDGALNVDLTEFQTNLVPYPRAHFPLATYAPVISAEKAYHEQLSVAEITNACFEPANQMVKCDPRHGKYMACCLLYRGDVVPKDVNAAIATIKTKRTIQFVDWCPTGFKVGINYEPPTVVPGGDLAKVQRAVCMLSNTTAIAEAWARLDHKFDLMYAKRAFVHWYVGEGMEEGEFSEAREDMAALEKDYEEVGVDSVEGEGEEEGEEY
T1 chain 2: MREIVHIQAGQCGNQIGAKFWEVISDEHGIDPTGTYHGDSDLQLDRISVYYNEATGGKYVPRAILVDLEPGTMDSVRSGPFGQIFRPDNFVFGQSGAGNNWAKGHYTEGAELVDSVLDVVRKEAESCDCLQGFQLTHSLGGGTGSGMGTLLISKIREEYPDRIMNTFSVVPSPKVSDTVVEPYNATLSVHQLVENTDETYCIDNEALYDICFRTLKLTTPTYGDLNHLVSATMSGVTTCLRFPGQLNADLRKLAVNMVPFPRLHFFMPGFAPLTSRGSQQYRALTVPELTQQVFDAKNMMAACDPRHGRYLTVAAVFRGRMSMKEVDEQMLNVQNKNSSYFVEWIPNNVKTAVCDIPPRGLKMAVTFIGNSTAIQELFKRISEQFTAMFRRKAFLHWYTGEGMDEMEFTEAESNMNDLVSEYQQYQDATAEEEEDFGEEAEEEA
Assay: microtubule co-sedimentation

B1: Mars (MBP-N-Mars) 1-430 (protein)
chain: MQRHKELYKEQSLVLSPRNHCQENRDRLQAARAKKREDCFYQNRIISVSPTPVKIKQLAAAQAALTQENVAPKLESPERLDTKPAELLKESNPKVSRQKLYLQRYMEWKIAKTKEHKQQDQKRRGAAINVPTVKQSKALPKSQTFRVPDNLASAKQKEAAPMFQPPKRCSLYMIANPTGKGKAAEPIKPSIPKPTSAAAPPSSNTVAASSALARHKSAASATKIVPAIRQNNNPVALARQKAAARPIPNTTKQTTSVRQPGIEAKKITTTIPRPTPATVTKAKTPGIRQQPPVVSTKPRLPEPPAPRTARLPNVLSKPFEKPLGNKAPVTRRANVVKPQPIRGGGGAAAKFKDTAGATSKAASHSIRMKATKIKSQYTRLQDNVRKLPQLKAELLHAATLDIPPLTPLDDIHNPFIDQATSTQCKSNNSS
modifications: MBP fusion, taxol-stabilized GMPPNP/GDP-NP microtubules
B1 showed a Kd of 250 nM.
